Here are results for one substance from IntAct's records for PubMed 17666011.

Test [1] concerns the target T1, anm12_arath PRMT12 (UniProt O82210).
T1 sequence: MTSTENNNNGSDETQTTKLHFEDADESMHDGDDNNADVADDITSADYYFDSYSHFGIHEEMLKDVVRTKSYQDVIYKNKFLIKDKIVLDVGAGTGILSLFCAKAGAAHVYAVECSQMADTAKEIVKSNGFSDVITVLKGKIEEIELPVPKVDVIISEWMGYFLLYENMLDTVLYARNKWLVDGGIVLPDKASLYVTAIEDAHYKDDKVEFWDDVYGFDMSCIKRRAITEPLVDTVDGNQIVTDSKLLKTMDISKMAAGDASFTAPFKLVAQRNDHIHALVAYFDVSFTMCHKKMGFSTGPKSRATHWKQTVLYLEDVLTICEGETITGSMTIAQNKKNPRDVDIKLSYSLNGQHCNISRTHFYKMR

The target of test [2] is T2, anm11_arath PRMT11 (UniProt Q9SU94).
T2 sequence: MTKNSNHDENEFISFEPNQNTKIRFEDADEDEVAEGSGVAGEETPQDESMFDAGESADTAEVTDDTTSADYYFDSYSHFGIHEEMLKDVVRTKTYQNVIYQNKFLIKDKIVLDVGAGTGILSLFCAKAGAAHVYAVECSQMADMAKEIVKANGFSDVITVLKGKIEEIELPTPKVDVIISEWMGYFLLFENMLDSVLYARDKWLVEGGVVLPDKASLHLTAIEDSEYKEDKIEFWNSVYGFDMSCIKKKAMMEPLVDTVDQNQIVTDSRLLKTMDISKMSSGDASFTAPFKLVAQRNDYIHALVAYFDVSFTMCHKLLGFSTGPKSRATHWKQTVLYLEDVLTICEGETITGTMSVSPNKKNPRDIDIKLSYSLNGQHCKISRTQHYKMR

Take “Histone H4 (Homo sapiens) (from UniProt P62805) R20K”: the “effect of a mutation on the interaction” value in test [1] and in test [2] was “disrupting interaction” each time.
